Publication PMC9706017, “Crystal Structure and Molecular Mechanism of Phosphotransbutyrylase from Clostridium acetobutylicum” (Journal of Microbiology and Biotechnology, 2021)

Molecular target: the molecule itself
Assay: crystal structure; apo CaPTB with sulfate ions; crystals from 20% PEG3350, 0.2 M lithium sulfate, 0.1 M HEPES pH 7.5, 20°C; space group P21; 2.9 Å; eight molecules in the asymmetric unit

B1: phosphotransbutyrylase from Clostridium acetobutylicum (enzyme, UniProt P58255 1-301, looked up)
chain: MIKSFNEIIMKVKSKEMKKVAVAVAQDEPVLEAVRDAKKNGIADAILVGDHDEIVSIALKIGMDVNDFEIVNEPNVKKAALKAVELVSTGKADMVMKGLVNTATFLRSVLNKEVGLRTGKTMSHVAVFETEKFDRLLFLTDVAFNTYPELKEKIDIVNNSVKVAHAIGIENPKVAPICAVEVINPKMPSTLDAAMLSKMSDRGQIKGCVVDGPLALDIALSEEAAHHKGVTGEVAGKADIFLMPNIETGNVMYKTLTYTTDSKNGGILVGTSAPVVLTSRADSHETKMNSIALAALVAGNK
notes: phosphotransbutyrylase (phosphate butyryltransferase, PTB) of Clostridium acetobutylicum; Octamer (four dimers) in the crystal and by size-exclusion chromatography; Removal of the tag is not mentioned; also called CaPTB; PTB; source: E. coli BL21(DE3)-T1R, purified (Ni-NTA agarose, Superdex200 size exclusion)
  stoichiometry N: 8
